Results on 1 substance are retold here after patent US20130244253A1.

For the assay, the target named is TGF-β receptors on cultured rat primary hepatic stellate cells. Briefly: cell-based or functional assay.

The substance “purified recombinant NS3 protein (scNS4A-NS3 protease with trx-His-S tag) (enzyme)” returned an expression of the Collagen(I) α1 gene in cultured rat primary hepatic stellate cells of 6 times.
